Substrate in data set [1]: CC(C)(COP(=O)(O)OP(=O)(O)OC[C@H]1O[C@@H](n2cnc3c(N)ncnc32)[C@H](O)[C@@H]1O)[C@@H](O)C(=O)NCCC(=O)NCCS
Briefly: purified protein. The conditions noted are these: 200 uM ATP, 10 mM MgCl2, pH 7.4, 37 °C.

Substrate in data set [2]: Nc1ncnc2c1ncn2[C@@H]1O[C@H](COP(=O)(O)OP(=O)(O)OP(=O)(O)O)[C@@H](O)[C@H]1O
Description: purified protein. Conditions: 200 uM dCoA, 10 mM MgCl2, pH 7.4, 37 °C, phosphotransferase.

These results are taken from paper doi:10.1101/2020.11.11.377994v1.

Broadly, the Km is the substrate concentration at which the rate is half of its maximum. One may read the kcat as the number of substrate molecules converted per active site and unit of time at saturation.

B1: DPCK (DPCK-WT), putative dephospho-CoA kinase (Aquifex aeolicus VF5) (protein)
chain: MKRIGLTGNIGCGKSTVAQMFRELGAYVLDADKLIHSFYRKGHPVYEEVVKTFGKGILDEEGNIDRKKLADIVFKDEEKLRKLEEITHRALYKEIEKITKNLSEDTLFILEASLLVEKGTYKNYDKLIVVYAPYEVCKERAIKRGMSEEDFERRWKKQMPIEEKVKYADYVIDNSGSIEETYKQVKKVYEELTRDP
Turning to B1, the Km is 24.3 ± 1.7 µM in “purified protein [1]” and 12.7 ± 0.3 µM in the data set “purified protein [2]”. Moreover, the kcat is 0.817 ± 0.0867 s⁻¹ in the data set “purified protein [1]” and 0.73 ± 0.025 s⁻¹ in “purified protein [2]”.
